# Fewer inactive variants are shown than the library holds.
# B1: TPR 5TU (parent)
# chain: GGAUCUUCUCGAUCUAACAAAAAAGACAAAUCUGCCACAAAGCUUGAGAGCAUCUUCGGAUGCAGAGGCGGCAGCCUUCGGUGGCGCGAUAGCGCCAACGUUCUCAACUAUGACACGCAAAACGCGUGCUCCGUUGAAUGGAGUUUAUCAUG
# Variants of: B1
# Test: polymerase ribozyme fitness, log enrichment relative to wild type (log ratio); higher = more active; in vitro selection for triplet polymerase activity
# How it was run: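 Mutant libraries of each subunit of a heterodimeric triplet polymerase ribozyme were built by PCR and transcribed. Each library went through one round of in vitro selection in triplicate: annealing with biotinylated primer, partner subunit and triplets, frozen incubation at −7 °C, gel excision of extended constructs, streptavidin-bead capture and RT-PCR. Input and output libraries were Illumina-sequenced; only genotypes with ≥10 input reads and ≥1 read per output were kept. Fitness is log2(genotype enrichment/wild-type enrichment), using inverse-variance-weighted replicate averages.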
row,Variant,polymerase ribozyme fitness (log ratio)
1,U56C U109A,-1.87
2,U56G C85A C95A,-1.74
3,U56C U109A U127C,-3.65
4,C57U C85G A142C A150G,≤ -4.2
5,U56G C79U U90A A107U C114G,≤ -4.2
6,C57U C63U G65U G88A A138U,≤ -4.2
7,U56A G152U,-2.37
8,U56A G152A,-2.52
9,C57A G117U,0.691
10,C57U C87U C116U C118U A119C G136A,0.419
11,U56C G68U A121G U148A,≤ -4.2
12,U56G A150C,-3.51
13,C57A G94A,-0.487
14,U56A U102G,-2.4
15,C57G G83A,-1.02
16,C57G G83U,-0.732
17,C57A G84U,-1.29
18,U56A G83U C93G,≤ -4.2
19,C57G G65A U134C,-1.35
20,C57G G58A A91G,-3.24
21,U56C C76A A122G,-0.262
22,U56G A73G C87A G94U C118U,≤ -4.2
23,C57U G83A G88A A89G U134G,≤ -4.2
24,C57G G86C,-3.04

row,Variant,polymerase ribozyme fitness (log ratio)
1,C57G G86A,-1
2,C57G C85U G117U C118G,-1.51
3,U56A U134A G143C,-4.04
4,U56A G59C U144G,2.23
5,C57U C87G,≤ -4.2
6,C57A G58A,1.15
7,C57A G58U,0.207
8,C57A C87U C103G,-2.01
9,U56A U61G A91C U127C U148C A150U,≤ -4.2
10,C57A G84U A89U G92U C118U U151A,≤ -4.2
11,U56G C87A C103U C114U C125U,≤ -4.2
12,U56G C114U,-1.85
13,C57A C69G A91U A119G G128A G140C U145G,≤ -4.2
14,C57U G59A G83C G84U C85A U101G G126A A142C,≤ -4.2
15,C57A G59U U77A C99G,≤ -4.2
16,U56G U78C C85A C123U,-1.43
17,U56A G92A,-2.28
18,U56A G92C,-1.7
19,U56G G58C C99G,-2.63
20,C57U G88U G100A A107C,≤ -4.2
21,C57A A113C A119U,-1.37
22,C57G G59U A64C C103G C116G A137C,≤ -4.2
23,C57G C96G U145A,-0.71
24,C57G G59U C85U,-1.11

row,Variant,polymerase ribozyme fitness (log ratio)
1,C57U G83C,-0.999
2,C57A G92U C105G,-1.2
3,C57A U139A,-3.84
4,U56G G84U C85A C99U,≤ -4.2
5,C57A G62C C76U A91U C108U G140U U144G C149G,≤ -4.2
6,U56A U82C C87G A150U,-3.31
7,C57U G94A,-0.629
8,C57U G94U,-0.85
9,C57A C75U G92C G140U,≤ -4.2
10,C57A C87U,-1.52
11,C57A C87G,-3.18
12,U56C G58A G84A U145G,0.113
13,C57A C87A C116G U127A C129U A137G C149U,≤ -4.2
14,C57A G124U,-0.787
15,C57G A91G,-4.08
16,U56A G83C C87U A89C C108U U144C,≤ -4.2
17,U56C C75A G88C C99G,≤ -4.2
18,C57A U78G A97G G117A A122G,≤ -4.2
19,C57A A89U A98G,0.118
20,C57A G59C G84U A107G A115U A137G C149U,≤ -4.2
21,U56G C76A U77C C93G C105A U109G,≤ -4.2
22,C57A G86U C123U C125U,-0.745
23,C57G G80A G84A,-0.169
24,U56A G65A G94C A150U,-1.57

row,Variant,polymerase ribozyme fitness (log ratio)
1,U56A G88U C114A,≤ -4.2
2,C57G U82A A98G,-3.69
3,C57U G94C C116U,0.445
4,C57G G94A G141C,-0.316
5,C57G G68A G84U G126C U135G U144A,≤ -4.2
6,C57U C95G U127C U139G A142G,-4.04
7,C57G C114U,-1.83
8,C57G C114A,-3.32
9,C57G G68U G94U C116G,≤ -4.2
10,C57U C87U C103G,-1.94
11,C57U C95A A97C C123A,-0.924
12,C57G U77C G84A U134A,≤ -4.2
13,C57G C96A U139G,-0.754
14,C57U A66C,-3.93
15,C57G C95U,-1.18
16,U56A U90C U144G,-3.91
17,C57A A60G C79G,-3.6
18,U56A G67C C93U C103A U130A U148C,≤ -4.2
19,C57A G70U C96U,-2.27
20,U56A G80U,-0.898
21,C57U A73G G84C C95A C118G,-2.62
22,C57A A91G,-2.76
23,C57G G94C A98G C105U,-0.386
24,C57G G67U G92C A106C,≤ -4.2

row,Variant,polymerase ribozyme fitness (log ratio)
1,C57A C114U,-1.45
2,U56A G84U A89C A142U,-3.24
3,C57A C76U C85U G92C G126C,-2.15
4,U56G U146G,-3.46
5,U56C G81U G92U C108G,≤ -4.2
6,C57G A120U U144A,-1.24
7,U56G G68U G92A C93A A106U A115U A150C,≤ -4.2
8,C57G C75U C108A A110G,≤ -4.2
9,C57G G86A C95U C99U G141U,-3.92
10,U56G G84A,-3.48
11,C57A A73G C125A,-0.303
12,U56A G84A U90C C125A,≤ -4.2
13,C57G G74C,≤ -4.2
14,C57U G58C A142C,0.768
15,C57A G92U,-0.638
16,C57A A60G U101A U109A A113U,-3.65
17,U56A G83C G100U,≤ -4.2
18,C57U G83U A137G,-1.92
19,U56A U104G A115C A142C,≤ -4.2
20,U56A U109C,-3.5
21,C57G G92U,-0.526
22,C57G G67C,-4.16
23,U56C G62U C87U,-0.567
24,C57G G59C G86A A142G,-3.23

row,Variant,polymerase ribozyme fitness (log ratio)
1,C57A U102C C103U,-2.76
2,C57U A64U C114U,≤ -4.2
3,C57U C85U G143A,-0.317
4,C57U A91U U102G G152U,-3.9
5,C57G A91G G100A C123A C131A,≤ -4.2
6,C57G G143C,-1.72
7,U56A G70A C85U A97G G133C,≤ -4.2
8,C57U C76A C93U C116A U151G,≤ -4.2
9,C57U A138U U145G,-3.98
10,C57U A97G G128C G141C,-3.99
11,C57U A142C,-0.377
12,U56G A60G C99U U102A,-2.07
13,C57U C116G G124C G141C U145G,≤ -4.2
14,U56G G68C C85A C114A,≤ -4.2
15,C57A C105U,1.29
16,C57U A97G,-0.11
17,C57A G65A G84U A120G,-3.08
18,C57A G65A U82G,-0.673
19,U56C U82G,-0.541
20,C57A G133U,-3.13
21,C57A A60C,-1.35
22,C57A A89G C95U A119U A120U C125U,-1.54
23,U56G G81U A91G,-3.38
24,U56G G88U G92U C96U C125A,-3.87

row,Variant,polymerase ribozyme fitness (log ratio)
1,C57A C72U A150U,-0.157
2,C57G G58A G86U,-1.7
3,U56A U82C C93U,-1.41
4,C57U C93U A115C A142C A147U,≤ -4.2
5,U56C G143U,-2.95
6,C57G U146A,-0.273
7,U56G G100U U134A U146A U148A,≤ -4.2
8,U56A U61A C96U U101A,-1.95
9,U56G G59C C85G U135A,-2.51
10,C57G C76A C95U C129G A137C U144G,≤ -4.2
11,C57U C96G U130A,-3.15
12,U56A U144A,-0.302
13,U56A G92U U102A U134C,-1.59
14,C57U G58U,0.297
15,U56A G81A C103G A121G A122U,-1.56
16,C57A C76U,0.264
17,U56G C93U A110U,-3.71
18,U56G G92U A97U C105U,-1.61
19,U56A G71U C125G,-3.78
20,C57G A89U A98U,-1.18
21,C57A C96U G124A A150C,-3.99
22,U56A G81C A120C G141A,0.526
23,C57U A64C A89U G128U U148A,≤ -4.2
